From US20240093191A1, “COMPOSITIONS AND METHODS FOR TREATING DISEASE ASSOCIATED WITH DUX4 OVEREXPRESSION” (RESEARCH INSTITUTE AT NATIONWIDE CHILDREN'S HOSPITAL, priority 2021, published 2024)

Test system: CDC6
Experiment: QPCR of CDC6 in transfected HEK293 cells
Assay type: cell-based, human
Settings: 48 h, relative to U6.milacZ
Protocol: The expression of SMAD1, SMAD5 and CDC6 was measured by QPCR in HEK293 cells using TaqMan probes specific to each investigated gene. To do that, U6.milacZ (negative control), H1.mir-675, U6.mir-675-3p or U6.mir-675-5p expressing constructs were transfected into HEK293 cells, and total RNA was extracted 48h after transfection. As a result, U6.mir-675-3p reduced SMAD1 levels by an average of 32±6% (P<0.044, ANOVA, N=3) and SMAD5 levels by an average of 35±6% (P<0.0013, ANOVA, N=3). On the other hand, H1.mir-675 and U6.mir-675-5p repressed CDC6 levels by an average of 38±4% (P<0.0034, ANOVA, N=3) and 36±7% (P<0.0048, ANOVA, N=3), respectively. Results were reported as relative gene expression (ΔΔCq)±SEM of three replicates (N=3) relative to gene expression in cells transfected with U6.milacZ, with each QPCR assay performed in triplicate. All results were quantified using as reference gene the house keeping gene RPL13A.
Along with a previous study showing the beneficial effect of mir-675 on regeneration and differentiation of injured mouse skeletal muscles [Dey et al., Genes Dev. […] QPCR was used to measure the expression of SMAD1, SMAD5 and CDC6 in HEK293 cells using TaqMan probes specific to each investigated gene. […] All results were quantified using as reference gene the house keeping gene RPL13A. […]

B1: H1.mir-675: commercially available H1 promoter mir-675 expression plasmid (SBI Biosciences) (nucleic acid)
DNA: GAACGCTGACGTCATCAACCCGCTCCAAGGAATCGCGGGCCCAGTGTCACTAGGCGGGAACACCCAGCGCGCGTGCGCCCTGGCAGGAAGATGGCTGTGAGGGACAGGGGAGTGGCGCCCTGCAATATTTGCATGTCGCTATGTGTTCTGGGAAATCACCATAAACGTGAAATGTCTTTGGATTTGGGAATCTTATAAGTTCTGTATGAGACCACCCCCCAGGGTCTGGTGCGGAGAGGGCCCACAGTGGACTTGGTGACGCTGTATGCCCTCACCGCTCAGCCCCTGGGGAATTCTTCGATTCTGCTTTTTT
B1 was tested, and the “repression of CDC6 levels” value was 38±4%.
